Reference: patent US20210061908A1 (IOMX THERAPEUTICS, published 2021)
Changes are numbered by the printed parent chain.

B1: A-031 (scFv format) (scFv, V domains shown)
VH: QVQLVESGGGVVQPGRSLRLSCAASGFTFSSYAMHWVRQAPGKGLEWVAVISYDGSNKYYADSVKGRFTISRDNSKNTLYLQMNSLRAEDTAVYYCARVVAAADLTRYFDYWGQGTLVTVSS
VL: EIVLTQSPGTVSLSPGERATLSCRASQSVPKNYLAWFQQKPGQAPRLVIHTASSRAPGIPDRFTGSGSGTDFTLTISRLEPEDFAVYYCQQYGTSPNTFGQGTKLDIK
notes: scFv
B2: A-033 (scFv format) (scFv, V domains shown)
VH: QVQLVQSGAEVKKPGASVKVSCKASGYTFTSYGISWVRQAPGQGLEWMGWISAYNGNTNYAQKLQGRVTMTTDTSTSTAYMELRSLRSDDTAVYYCARDHSIVGATTFDYWGQGTLVTVSS
VL: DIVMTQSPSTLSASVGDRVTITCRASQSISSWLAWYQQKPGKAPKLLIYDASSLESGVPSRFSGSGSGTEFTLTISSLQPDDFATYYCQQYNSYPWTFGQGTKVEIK
notes: scFv
B3: A-035 (scFv format) (scFv, V domains shown)
VH: QVQLVQSGAEVKKPGASVKVSCKASGYTFTGYYMHWVRQAPGQGLEWMGWINPNSGNTGYAQKFQGRVTMTRNTSISTAYMELSSLRSEDTAVYYCARGRLERGYWYFDLWGRGTLVTVSS
VL: NFMLTQPHSVSESPGRTVTISCTRSSGSITSNYVQWYQQRPGSAPTILIYEDKERPSEVPDRFSGSIDISSNSASLTISGLKTEDEADYYCQSYGGTSQGVLFGGGTKVTVL
notes: scFv
B4: A-001 (scFv format) (scFv, V domains shown)
VH: EVQLVESGGGLVKPGGSLRLSCAASGFTFSSYSMNWVRQAPGKGLEWVSSISSSSSYIYYADSVKGRFTISRDNAKNSLYLQMNSLRAEDTAVYYCVRSIIVQALGITSVFDIWGQGTMVTVSS
VL: AIRLTQSPSSLSASVGDRVTISCRASQIISNHLNWYQQKPGKAPKLLIYAASRLQTGVPSRFSGSGSETDYTLTISSLQPEDFATYYCQQSYSNPRTFGHGTKVEIK
notes: scFv
B5: A-004 (scFv format) (scFv, V domains shown)
VH: EVQLVESGGGLVKPGGSLRLSCAASGFTFSSYSMNWVRQAPGKGLEWVSSISSSSSYIYYADSVKGRFTISRDNAKNSLYLQMNSLRAEDTAVYYCARGQLLWFGESALIDAFDIWGQGTMVTVSS
VL: EIVLTQSPSSLSASVGDRVTITCRASQSISSYLNWYQLKPGKAPKLLIYAASILQSGVPSRFSGSGSGTDFTLTISSLQPEDFAAYYCQQSYSTPRTFGQGTKLEIK
notes: scFv
B6: A-032 (scFv format) (scFv, V domains shown)
VH: QVQLVQSGAEVKKPGASVKVSCKASGYTFTGYYMHWVRQAPGQGLEWMGWMNPNSGNTGYAQKFQGRVTMTRNTSISTAYMELSSLRSEDTAVYYCARGGQQQLVLDDYWGQGTLVTVSS
VL: not shown
B7: A-030 (scFv format) (scFv, V domains shown)
VH: B6 VH with M51I
VL: DIQLTQSPSTLSASVGDRVTITCRASQSIGGWLAWYQHKPGKAPKLLIYAASSLQSGVPSRFSGSGSGTDFTLTISSLQPEDFATYYCRQSYSTPPTFGQGTKVEIK
notes: scFv
B8: A-036 (scFv format) (scFv, V domains shown)
VH: B6 VH with M51I, N57G, G59N
VL: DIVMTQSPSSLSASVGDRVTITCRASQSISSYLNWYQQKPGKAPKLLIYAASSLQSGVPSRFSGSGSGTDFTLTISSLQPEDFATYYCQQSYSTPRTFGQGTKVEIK
notes: scFv
B9: A-034 (scFv format) (scFv, V domains shown)
VH: QMQLVQSGGGLVKPGGSLRLSCAASGFTFSSYTMNWVRQAPGKGLEWVSSISSIGTYIYYADSVKGRFTISRDNAKNSLYLQMNSLRAEDTAVYYCARVLLSGSYYGYFDSWGQGTLVTVSS
VL: QSVLTQPPSVSGAPGQRVTISCTGSSSNIGAGYDVHWYQQLPGTAPKLFIYGNSNRPSGVPDRFSGSKSGTSASLAITGLQAEDEADYYCQSYDSSLSGYVFGTGTKVTVL
notes: scFv

Molecular target: T1, extracellular domain (ECD) of human IGSF11 (VSIG3), biotinylated (human, UniProt Q5DX21 23-241, biotinylated (site not stated))
T1 construct: also called human IGSF11 protein
T1 sequence: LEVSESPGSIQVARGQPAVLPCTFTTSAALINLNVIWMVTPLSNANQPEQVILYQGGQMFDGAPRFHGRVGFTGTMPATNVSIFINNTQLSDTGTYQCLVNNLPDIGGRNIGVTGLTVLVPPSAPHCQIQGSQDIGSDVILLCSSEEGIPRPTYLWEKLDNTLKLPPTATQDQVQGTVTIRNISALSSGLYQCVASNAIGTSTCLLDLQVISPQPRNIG
Experiment: ELISA, scFv; RFU grade (*** >1.0, ** 0.5-1.0, * 0.1-0.5)

Row | Binder | relative fluorescent units (RFU), ELISA [rfu]
1 | B1 | 0.1 to 0.5
2 | B2 | 0.1 to 0.5
3 | B3 | 0.5 to 1
4 | B4 | > 1
5 | B5 | 0.5 to 1
6 | B6 | 0.1 to 0.5
7 | B7 | 0.1 to 0.5
8 | B8 | 0.1 to 0.5
9 | B9 | > 1

Molecular target: T2, extracellular domain (ECD) of murine IGSF11, biotinylated (mouse, UniProt P0C673 23-240, biotinylated (site not stated))
T2 construct: also called Mouse IGSF11; murine IGSF11 protein
T2 sequence: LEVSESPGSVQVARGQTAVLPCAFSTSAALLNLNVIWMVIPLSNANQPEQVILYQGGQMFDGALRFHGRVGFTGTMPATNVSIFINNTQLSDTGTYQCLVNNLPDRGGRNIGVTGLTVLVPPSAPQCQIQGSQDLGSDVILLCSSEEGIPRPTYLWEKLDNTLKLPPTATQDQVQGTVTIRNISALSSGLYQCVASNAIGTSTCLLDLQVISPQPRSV
Experiment: as above

Row | Binder | relative fluorescent units (RFU), ELISA [rfu]
10 | B1 | 0.1 to 0.5
11 | B2 | 0.1 to 0.5
12 | B3 | > 1
13 | B4 | > 1
14 | B5 | > 1
15 | B6 | 0.1 to 0.5
16 | B7 | 0.1 to 0.5
17 | B8 | 0.1 to 0.5
18 | B9 | 0.5 to 1
